Results from patent publication US20210388110A1 (published 2021).

B1: TR01H067-E22Hh/none-Hi-Kn010G3/L0226-k0 (antibody, human IgG1, kappa, L234A L235A, N297A)
heavy: QVQLVESGGGLVQPGRSLRLSCAASGFTFSNAWMHWVRQAPGKGLEWVAQIKDKSQNYATYYAESVKGRFTISRDDSKNSLYLQMNSLKTEDTAVYYCRYVHYAASYGVDAWGQGTTVTVSSASTKGPSVFPLAPSSKSTSGGTAALGCLVKDYFPEPVTVSWNSGALTSGVHTFPAVLQSSGLYSLSSVVTVPSSSLGTQTYICNVNHKPSNTKVDKKVEPKSCDKTHTCPPCPAPEAAGGPSVFLFPPKPKDTLMISRTPEVTCVVVDVSHEDPEVKFNWYVDGVEVHNAKTKPREEQYASTYRVVSVLTVLHQDWLNGKEYKCKVSNKALPAPIEKTISKAKGQPREPQVYTLPPSRCELTKNQVSLSCAVKGFYPSDIAVEWESNGQPENNYKTTPPVLDSDGSFFLVSKLTVDKSRWQQGNVFSCSVMHEALHNHYTQKSLSLSPDYKDDDDK
chain: EPKSSDKTHTCPPCPAPELLGGPSVFLFPPKPKDTLMISRTPEVTCVVVDVSHEDPEVKFNWYVDGVEVHNAKTKPREEQYNSTYRVVSVLTVLHQDWLNGKEYKCKVSNKALPAPIEKTISKAKGQPREPQVCTLPPSRDELTKNQVSLWCLVKGFYPSDIAVEWESNGQPENNYKTTPPVLDSDGSFFLYSKLTVDKSRWQQGNVFSCSVMHEALHNRYTQKSLSLSP
light: DIVMTQSPLSLPVTPGEPASISCRSSQSPVHSNRNTYIHWYQQKPGQAPRLLIYKVSNRFSGVPDRFSGSGSGTDFTLKISRVEAEDVGVYYCIQGTQVPYTFGQGTKLEIKRTVAAPSVFIFPPSDEQLKSGTASVVCLLNNFYPREAKVQWKVDNALQSGNSQESVTEQDSKDSTYSLSSTLTLSKADYEKHKVYACEVTHQGLSSPVTKSFNRGEC
notes: one-arm antibody (single Fab) with Fab-less hinge-Fc chain Hi-Kn010G3
B2: TR01H067-E22Hh/none-Hi-Kn010G3/L0248-k0 (antibody, human IgG1, kappa, L234A L235A, N297A)
heavy: QVQLVESGGGLVQPGRSLRLSCAASGFTFSNAWMHWVRQAPGKGLEWVAQIKDKSQNYATYYAESVKGRFTISRDDSKNSLYLQMNSLKTEDTAVYYCRYVHYAASYGVDAWGQGTTVTVSSASTKGPSVFPLAPSSKSTSGGTAALGCLVKDYFPEPVTVSWNSGALTSGVHTFPAVLQSSGLYSLSSVVTVPSSSLGTQTYICNVNHKPSNTKVDKKVEPKSCDKTHTCPPCPAPEAAGGPSVFLFPPKPKDTLMISRTPEVTCVVVDVSHEDPEVKFNWYVDGVEVHNAKTKPREEQYASTYRVVSVLTVLHQDWLNGKEYKCKVSNKALPAPIEKTISKAKGQPREPQVYTLPPSRCELTKNQVSLSCAVKGFYPSDIAVEWESNGQPENNYKTTPPVLDSDGSFFLVSKLTVDKSRWQQGNVFSCSVMHEALHNHYTQKSLSLSPDYKDDDDK
chain: EPKSSDKTHTCPPCPAPELLGGPSVFLFPPKPKDTLMISRTPEVTCVVVDVSHEDPEVKFNWYVDGVEVHNAKTKPREEQYNSTYRVVSVLTVLHQDWLNGKEYKCKVSNKALPAPIEKTISKAKGQPREPQVCTLPPSRDELTKNQVSLWCLVKGFYPSDIAVEWESNGQPENNYKTTPPVLDSDGSFFLYSKLTVDKSRWQQGNVFSCSVMHEALHNRYTQKSLSLSP
light: DIVMTQSPLSLPVTPGEPASISCRPSQSPVHSNRNTYIQWYQQKPGQAPRLLIYKVSNRFSGVPDRFSGSGSGTDFTLKISRVEAEDVGVYYCYQGTQVPYTFGQGTKLEIKRTVAAPSVFIFPPSDEQLKSGTASVVCLLNNFYPREAKVQWKVDNALQSGNSQESVTEQDSKDSTYSLSSTLTLSKADYEKHKVYACEVTHQGLSSPVTKSFNRGEC
notes: as for B1
B3: TR01H067-E22Hh/none-Hi-Kn010G3/TR01L015-k0 (antibody, human IgG1, kappa, L234A L235A, N297A)
heavy: QVQLVESGGGLVQPGRSLRLSCAASGFTFSNAWMHWVRQAPGKGLEWVAQIKDKSQNYATYYAESVKGRFTISRDDSKNSLYLQMNSLKTEDTAVYYCRYVHYAASYGVDAWGQGTTVTVSSASTKGPSVFPLAPSSKSTSGGTAALGCLVKDYFPEPVTVSWNSGALTSGVHTFPAVLQSSGLYSLSSVVTVPSSSLGTQTYICNVNHKPSNTKVDKKVEPKSCDKTHTCPPCPAPEAAGGPSVFLFPPKPKDTLMISRTPEVTCVVVDVSHEDPEVKFNWYVDGVEVHNAKTKPREEQYASTYRVVSVLTVLHQDWLNGKEYKCKVSNKALPAPIEKTISKAKGQPREPQVYTLPPSRCELTKNQVSLSCAVKGFYPSDIAVEWESNGQPENNYKTTPPVLDSDGSFFLVSKLTVDKSRWQQGNVFSCSVMHEALHNHYTQKSLSLSPDYKDDDDK
chain: EPKSSDKTHTCPPCPAPELLGGPSVFLFPPKPKDTLMISRTPEVTCVVVDVSHEDPEVKFNWYVDGVEVHNAKTKPREEQYNSTYRVVSVLTVLHQDWLNGKEYKCKVSNKALPAPIEKTISKAKGQPREPQVCTLPPSRDELTKNQVSLWCLVKGFYPSDIAVEWESNGQPENNYKTTPPVLDSDGSFFLYSKLTVDKSRWQQGNVFSCSVMHEALHNRYTQKSLSLSP
light: DIVMTQSPLSLPVTPGEPASISCRSSQSPVHSNRNTYLHWYLQKPGQSPQLLIYKVSNRFSGVPDRFSGSGSGTDFTLKISRVEAEDVGVYYCGQGTQVPYTFGQGTKLEIKRTVAAPSVFIFPPSDEQLKSGTASVVCLLNNFYPREAKVQWKVDNALQSGNSQESVTEQDSKDSTYSLSSTLTLSKADYEKHKVYACEVTHQGLSSPVTKSFNRGEC
notes: as for B1
B4: TR01H067-E22Hh/none-Hi-Kn010G3/TR01L018-k0 (antibody, human IgG1, kappa, L234A L235A, N297A)
heavy: QVQLVESGGGLVQPGRSLRLSCAASGFTFSNAWMHWVRQAPGKGLEWVAQIKDKSQNYATYYAESVKGRFTISRDDSKNSLYLQMNSLKTEDTAVYYCRYVHYAASYGVDAWGQGTTVTVSSASTKGPSVFPLAPSSKSTSGGTAALGCLVKDYFPEPVTVSWNSGALTSGVHTFPAVLQSSGLYSLSSVVTVPSSSLGTQTYICNVNHKPSNTKVDKKVEPKSCDKTHTCPPCPAPEAAGGPSVFLFPPKPKDTLMISRTPEVTCVVVDVSHEDPEVKFNWYVDGVEVHNAKTKPREEQYASTYRVVSVLTVLHQDWLNGKEYKCKVSNKALPAPIEKTISKAKGQPREPQVYTLPPSRCELTKNQVSLSCAVKGFYPSDIAVEWESNGQPENNYKTTPPVLDSDGSFFLVSKLTVDKSRWQQGNVFSCSVMHEALHNHYTQKSLSLSPDYKDDDDK
chain: EPKSSDKTHTCPPCPAPELLGGPSVFLFPPKPKDTLMISRTPEVTCVVVDVSHEDPEVKFNWYVDGVEVHNAKTKPREEQYNSTYRVVSVLTVLHQDWLNGKEYKCKVSNKALPAPIEKTISKAKGQPREPQVCTLPPSRDELTKNQVSLWCLVKGFYPSDIAVEWESNGQPENNYKTTPPVLDSDGSFFLYSKLTVDKSRWQQGNVFSCSVMHEALHNRYTQKSLSLSP
light: DIVMTQSPLSLPVTPGEPASISCQASESPVHSNRNTYLHWYLQKPGQSPQLLIYKVSNRFSGVPDRFSGSGSGTDFTLKISRVEAEDVGVYYCGQGTQVPYTFGQGTKLEIKRTVAAPSVFIFPPSDEQLKSGTASVVCLLNNFYPREAKVQWKVDNALQSGNSQESVTEQDSKDSTYSLSSTLTLSKADYEKHKVYACEVTHQGLSSPVTKSFNRGEC
notes: as for B1
B5: TR01H068-E22Hh/none-Hi-Kn010G3/L0000-k0 (antibody, human IgG1, kappa, L234A L235A, N297A)
heavy: QVQLVESGGGVVQPGGSLRLSCAASGFTFSNAWMHWVRQAPGKGLEWVAQIKDKSQNYATYYAESVKGRFTISRDDSKNSLYLQMNSLKTEDTAVYYCRYVHYAASYGVDAWGQGTTVTVSSASTKGPSVFPLAPSSKSTSGGTAALGCLVKDYFPEPVTVSWNSGALTSGVHTFPAVLQSSGLYSLSSVVTVPSSSLGTQTYICNVNHKPSNTKVDKKVEPKSCDKTHTCPPCPAPEAAGGPSVFLFPPKPKDTLMISRTPEVTCVVVDVSHEDPEVKFNWYVDGVEVHNAKTKPREEQYASTYRVVSVLTVLHQDWLNGKEYKCKVSNKALPAPIEKTISKAKGQPREPQVYTLPPSRCELTKNQVSLSCAVKGFYPSDIAVEWESNGQPENNYKTTPPVLDSDGSFFLVSKLTVDKSRWQQGNVFSCSVMHEALHNHYTQKSLSLSPDYKDDDDK
chain: EPKSSDKTHTCPPCPAPELLGGPSVFLFPPKPKDTLMISRTPEVTCVVVDVSHEDPEVKFNWYVDGVEVHNAKTKPREEQYNSTYRVVSVLTVLHQDWLNGKEYKCKVSNKALPAPIEKTISKAKGQPREPQVCTLPPSRDELTKNQVSLWCLVKGFYPSDIAVEWESNGQPENNYKTTPPVLDSDGSFFLYSKLTVDKSRWQQGNVFSCSVMHEALHNRYTQKSLSLSP
light: DIVMTQSPLSLPVTPGEPASISCRSSQSLVHSNRNTYLHWYQQKPGQAPRLLIYKVSNRFSGVPDRFSGSGSGTDFTLKISRVEAEDVGVYYCGQGTQVPYTFGQGTKLEIKRTVAAPSVFIFPPSDEQLKSGTASVVCLLNNFYPREAKVQWKVDNALQSGNSQESVTEQDSKDSTYSLSSTLTLSKADYEKHKVYACEVTHQGLSSPVTKSFNRGEC
notes: as for B1
B6: TR01H070-E22Hh/none-Hi-Kn010G3/L0000-k0 (antibody, human IgG1, kappa, L234A L235A, N297A)
heavy: QVQLVESGGGVVQPGGSLRLSCAASGFTFSNAWMHWVRQAPGKGLEWVAQIKDKSQNYATYYAESVKGRFTISRDDSKNSLYLQMNSLKTEDTAVYYCRYVHYAASYGVDYWGQGTTVTVSSASTKGPSVFPLAPSSKSTSGGTAALGCLVKDYFPEPVTVSWNSGALTSGVHTFPAVLQSSGLYSLSSVVTVPSSSLGTQTYICNVNHKPSNTKVDKKVEPKSCDKTHTCPPCPAPEAAGGPSVFLFPPKPKDTLMISRTPEVTCVVVDVSHEDPEVKFNWYVDGVEVHNAKTKPREEQYASTYRVVSVLTVLHQDWLNGKEYKCKVSNKALPAPIEKTISKAKGQPREPQVYTLPPSRCELTKNQVSLSCAVKGFYPSDIAVEWESNGQPENNYKTTPPVLDSDGSFFLVSKLTVDKSRWQQGNVFSCSVMHEALHNHYTQKSLSLSPDYKDDDDK
chain: EPKSSDKTHTCPPCPAPELLGGPSVFLFPPKPKDTLMISRTPEVTCVVVDVSHEDPEVKFNWYVDGVEVHNAKTKPREEQYNSTYRVVSVLTVLHQDWLNGKEYKCKVSNKALPAPIEKTISKAKGQPREPQVCTLPPSRDELTKNQVSLWCLVKGFYPSDIAVEWESNGQPENNYKTTPPVLDSDGSFFLYSKLTVDKSRWQQGNVFSCSVMHEALHNRYTQKSLSLSP
light: DIVMTQSPLSLPVTPGEPASISCRSSQSLVHSNRNTYLHWYQQKPGQAPRLLIYKVSNRFSGVPDRFSGSGSGTDFTLKISRVEAEDVGVYYCGQGTQVPYTFGQGTKLEIKRTVAAPSVFIFPPSDEQLKSGTASVVCLLNNFYPREAKVQWKVDNALQSGNSQESVTEQDSKDSTYSLSSTLTLSKADYEKHKVYACEVTHQGLSSPVTKSFNRGEC
notes: as for B1

Biological target: T1, soluble human CD3ε chain (human, UniProt P07766 23-126, limits assumed)
T1 construct: also called human CD3 epsilon chain
T1 sequence (P07766 23-126 limits assumed): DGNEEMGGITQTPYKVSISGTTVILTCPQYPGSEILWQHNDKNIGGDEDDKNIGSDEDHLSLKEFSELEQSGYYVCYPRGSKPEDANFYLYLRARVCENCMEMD
Experiment: SPR (Biacore), soluble human CD3ε chain

Point of comparison: B1, Kd 132 nM. Against it:
- B2 — within 1.5-fold, 139 nM
- B3 — 1.5-fold lower, 86.4 nM
- B4 — 2.5-fold lower, 52.6 nM
- B5 — within 1.5-fold, 101 nM
- B6 — within 1.5-fold, 120 nM
